Test results taken from patent US20180298083A1.
Read-outs that look alike come from different tables or passages of the source.

What was measured:
6631.V3.C10 (HIV-1) [1] = biological target: 6631.V3.C10 (HIV-1)
[2] = biological target: gp120 of X2088 (HIV-1 strain X2088.c9)
VRC01-resistant viruses [3] = biological target: VRC01-resistant viruses
VRC01-resistant viruses [4] = experiment: cell-based or functional assay
T250-4 (HIV-1) [5] = biological target: T250-4 (HIV-1)
6631.V3.C10 (HIV-1) [6] = biological target: 6631.V3.C10 (HIV-1); remark: listed apart in the source
[7] = biological target: gp120 of X2088 (HIV-1 strain X2088.c9); remark: listed apart in the source
T250-4 (HIV-1) [8] = biological target: T250-4 (HIV-1); remark: listed apart in the source
VRC01-resistant viruses [9] = biological target: VRC01-resistant viruses; remark: listed apart in the source
[10] = biological target: gp120 of X2088 (HIV-1 strain X2088.c9); remark: listed apart in the source
VRC01-resistant viruses [11] = biological target: VRC01-resistant viruses; remark: listed apart in the source
6631.V3.C10 (HIV-1) [12] = biological target: 6631.V3.C10 (HIV-1); remark: listed apart in the source
T250-4 (HIV-1) [13] = biological target: T250-4 (HIV-1); remark: listed apart in the source
VRC01-resistant viruses [14] = biological target: VRC01-resistant viruses; remark: listed apart in the source

| Binder | neutralisation median IC50 (VRC01-resistant viruses [3]) | fold decrease in neutralization (IC50 of antibody mutant/IC50 of antibody WT) (VRC01-resistant viruses [4]) | neutralisation IC50 [10] | neutralisation median IC50 (VRC01-resistant viruses [11]) | neutralisation IC50 (6631.V3.C10 (HIV-1) [12]) | other results |
| --- | --- | --- | --- | --- | --- | --- |
| N6 Y54GHC (antibody, V domains shown) VH: RAHLVQSGTAMKKPGASVRVSCQTSGYTFTAHILFWFRQAPGRGLEWVGWIKPQGGAVNFGGGFRDRVTLTRDVYREIAYMDIRGLKPDDTAVYYCARDRSYGDSSWALDAWGQGTTVVVSA VL: YIHVTQSPSSLSVSIGDRVTINCQTSQGVGSDLHWYQHKPGRAPKLLIHHTSSVEDGVPSRFSGSGFHTSFNLTISDLQADDIATYYCQVLQFFGRGSRLHIK | 0.562 mg/L | 32 fold | – | – | – | neutralisation IC50 (6631.V3.C10 (HIV-1) [1]): 0.396 mg/L; neutralisation IC50 [2]: 0.728 mg/L |
| N6 VRC08CDRH3 (antibody, V domains shown) VH: RAHLVQSGTAMKKPGASVRVSCQTSGYTFTAHILFWFRQAPGRGLEWVGWIKPQYGAVNFGGGFRDRVTLTRDVYREIAYMDIRGLKPDDTAVYYCARGRSCCGGRRHCNGADCFNWALDAWGQGTTVVVSA VL: YIHVTQSPSSLSVSIGDRVTINCQTSQGVGSDLHWYQHKPGRAPKLLIHHTSSVEDGVPSRFSGSGFHTSFNLTISDLQADDIATYYCQVLQFFGRGSRLHIK | > 50 mg/L | – | – | – | – | neutralisation IC50 [2]: 1.4 mg/L; neutralisation IC50 (T250-4 (HIV-1) [5]): > 50 mg/L |
| VRC27 heavy chain with N6 light chain (antibody, V domains shown) VH: QRLVQSGPQVRKPGSSVRISCETSGYTFNAYILHWFRQAPGRSFEWMGWIKPKFGAVNYAHSFQGRITLTRDIYRETAFLDLTGLRFDDTAVYYCARDRLYDGSSWRLDPWGQGTRVVVSS VL: YIHVTQSPSSLSVSIGDRVTINCQTSQGVGSDLHWYQHKPGRAPKLLIHHTSSVEDGVPSRFSGSGFHTSFNLTISDLQADDIATYYCQVLQFFGRGSRLHIK | – | – | – | – | – | neutralisation IC50 (6631.V3.C10 (HIV-1) [6]): > 50 mg/L; neutralisation IC50 [7]: > 50 mg/L; neutralisation IC50 (T250-4 (HIV-1) [8]): 23.1 mg/L; neutralisation fold change (IC50 original/IC50 combination) (VRC01-resistant viruses [9]): 1 fold; neutralisation median IC50 (VRC01-resistant viruses [9]): > 50 mg/L |
| N6 VRC27FRH2 (antibody, V domains shown) VH: RAHLVQSGTAMKKPGASVRVSCQTSGYTFTAHILFWFRQAPGRSFEWMGWIKPQYGAVNFGGGFRDRVTLTRDVYREIAYMDIRGLKPDDTAVYYCARDRSYGDSSWALDAWGQGTTVVVSA VL: YIHVTQSPSSLSVSIGDRVTINCQTSQGVGSDLHWYQHKPGRAPKLLIHHTSSVEDGVPSRFSGSGFHTSFNLTISDLQADDIATYYCQVLQFFGRGSRLHIK | – | – | 0.143 mg/L | 0.195 mg/L | – | – |
| N6 N17FRH3 (antibody, V domains shown) VH: RAHLVQSGTAMKKPGASVRVSCQTSGYTFTAHILFWFRQAPGRGLEWVGWIKPQYGAVNFGGGFRDRVTLTRDIYRDTAYMDISGLRFDDTAVYYCARDRSYGDSSWALDAWGQGTTVVVSA VL: YIHVTQSPSSLSVSIGDRVTINCQTSQGVGSDLHWYQHKPGRAPKLLIHHTSSVEDGVPSRFSGSGFHTSFNLTISDLQADDIATYYCQVLQFFGRGSRLHIK | – | – | 0.106 mg/L | 0.18 mg/L | – | fold decrease in potency (IC50 of antibody mutant/IC50 of antibody WT) (VRC01-resistant viruses [4]): 7 fold; neutralisation fold change (IC50 mutant/IC50 WT) (VRC01-resistant viruses [11]): 10 fold |
| N6 VRC27CDRH2 (antibody, V domains shown) VH: RAHLVQSGTAMKKPGASVRVSCQTSGYTFTAHILFWFRQAPGRGLEWVGWIKPKFGAVNYAHSFQGRVTLTRDVYREIAYMDIRGLKPDDTAVYYCARDRSYGDSSWALDAWGQGTTVVVSA VL: YIHVTQSPSSLSVSIGDRVTINCQTSQGVGSDLHWYQHKPGRAPKLLIHHTSSVEDGVPSRFSGSGFHTSFNLTISDLQADDIATYYCQVLQFFGRGSRLHIK | – | 78 fold | – | 1.37 mg/L | 1.17 mg/L | neutralisation IC50 (T250-4 (HIV-1) [13]): 1.57 mg/L |
| N6 VRC27CDRH3 (antibody, V domains shown) VH: RAHLVQSGTAMKKPGASVRVSCQTSGYTFTAHILFWFRQAPGRGLEWVGWIKPQYGAVNFGGGFRDRVTLTRDVYREIAYMDIRGLKPDDTAVYYCARDRLYDGSSWRLDPWGQGTTVVVSA VL: YIHVTQSPSSLSVSIGDRVTINCQTSQGVGSDLHWYQHKPGRAPKLLIHHTSSVEDGVPSRFSGSGFHTSFNLTISDLQADDIATYYCQVLQFFGRGSRLHIK | – | 10 fold | – | 0.167 mg/L | 0.268 mg/L | – |
| N6 VRC07CDRH3 (antibody, V domains shown) VH: RAHLVQSGTAMKKPGASVRVSCQTSGYTFTAHILFWFRQAPGRGLEWVGWIKPQYGAVNFGGGFRDRVTLTRDVYREIAYMDIRGLKPDDTAVYYCARGKYCTARDYYNWALDAWGQGTTVVVSA VL: YIHVTQSPSSLSVSIGDRVTINCQTSQGVGSDLHWYQHKPGRAPKLLIHHTSSVEDGVPSRFSGSGFHTSFNLTISDLQADDIATYYCQVLQFFGRGSRLHIK | 48.2 mg/L | – | – | – | – | neutralisation IC50 (6631.V3.C10 (HIV-1) [1]): > 50 mg/L; neutralisation IC50 (T250-4 (HIV-1) [5]): > 50 mg/L |
| N6 GGG60-62ARPHC (antibody, V domains shown) VH: RAHLVQSGTAMKKPGASVRVSCQTSGYTFTAHILFWFRQAPGRGLEWVGWIKPQYGAVNFARPFRDRVTLTRDVYREIAYMDIRGLKPDDTAVYYCARDRSYGDSSWALDAWGQGTTVVVSA VL: YIHVTQSPSSLSVSIGDRVTINCQTSQGVGSDLHWYQHKPGRAPKLLIHHTSSVEDGVPSRFSGSGFHTSFNLTISDLQADDIATYYCQVLQFFGRGSRLHIK | 0.248 mg/L | 14 fold | – | – | – | neutralisation IC50 [2]: 0.15 mg/L |
| N6 VRC27FRH3 (antibody, V domains shown) VH: RAHLVQSGTAMKKPGASVRVSCQTSGYTFTAHILFWFRQAPGRGLEWVGWIKPQYGAVNFGGGFRDRITLTRDIYRETAFLDLTGLRFDDTAVYYCARDRSYGDSSWALDAWGQGTTVVVSA VL: YIHVTQSPSSLSVSIGDRVTINCQTSQGVGSDLHWYQHKPGRAPKLLIHHTSSVEDGVPSRFSGSGFHTSFNLTISDLQADDIATYYCQVLQFFGRGSRLHIK | – | – | 0.509 mg/L | 0.525 mg/L | 0.54 mg/L | – |
| N6 VRC27FRH1 (antibody, V domains shown) VH: SQRLVQSGPQVRKPGSSVRISCETSGYTFNAHILFWFRQAPGRGLEWVGWIKPQYGAVNFGGGFRDRVTLTRDVYREIAYMDIRGLKPDDTAVYYCARDRSYGDSSWALDAWGQGTTVVVSA VL: YIHVTQSPSSLSVSIGDRVTINCQTSQGVGSDLHWYQHKPGRAPKLLIHHTSSVEDGVPSRFSGSGFHTSFNLTISDLQADDIATYYCQVLQFFGRGSRLHIK | – | – | 0.184 mg/L | 0.373 mg/L | 0.561 mg/L | – |
| N6 N17FRH1 (antibody, V domains shown) VH: RAHLVQSGTAVKRPGASVRVSCETSGYTFTAHILFWFRQAPGRGLEWVGWIKPQYGAVNFGGGFRDRVTLTRDVYREIAYMDIRGLKPDDTAVYYCARDRSYGDSSWALDAWGQGTTVVVSA VL: YIHVTQSPSSLSVSIGDRVTINCQTSQGVGSDLHWYQHKPGRAPKLLIHHTSSVEDGVPSRFSGSGFHTSFNLTISDLQADDIATYYCQVLQFFGRGSRLHIK | – | – | – | 0.111 mg/L | – | fold decrease in potency (IC50 of antibody mutant/IC50 of antibody WT) (VRC01-resistant viruses [4]): 5 fold; neutralisation fold change (IC50 mutant/IC50 WT) (VRC01-resistant viruses [11]): 6 fold |
| VRC01 (antibody, V domains shown) VH: QVQLVQSGGQMKKPGESMRISCRASGYEFIDCTLNWIRLAPGKRPEWMGWLKPRGGAVNYARPLQGRVTMTRDVYSDTAFLELRSLTVDDTAVYFCTRGKNCDYNWDFEHWGRGTPVIVSS VL: EIVLTQSPGTLSLSPGETAIISCRTSQYGSLAWYQQRPGQAPRLVIYSGSTRAAGIPDRFSGSRWGPDYNLTISNLESGDFGVYYCQQYEFFGQGTKVQVDIKR | – | – | – | – | – | neutralisation IC50 (VRC01-resistant viruses [14]): > 50 mg/L; neutralisation median IC50 (VRC01-resistant viruses [14]): > 50 mg/L |
